Results published in PMC9482650, “Quantitative fragmentomics allow affinity mapping of interactomes” (Nature Communications, 2022).

T1: LIN7C, Q9NUP9
T1 sequence (Q9NUP9 88-185, limits assumed, looked up): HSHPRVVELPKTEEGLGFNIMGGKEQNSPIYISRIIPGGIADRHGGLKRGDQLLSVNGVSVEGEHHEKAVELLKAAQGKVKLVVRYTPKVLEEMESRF

T2: APBA2_2, Q99767
T2 sequence (Q99767 654-744, limits assumed, looked up): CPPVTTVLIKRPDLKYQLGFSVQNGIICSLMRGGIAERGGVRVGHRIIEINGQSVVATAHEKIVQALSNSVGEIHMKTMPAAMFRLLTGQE

T3: NHERF3_3, Q5T2W1
T3 sequence (Q5T2W1 238-333, limits assumed, looked up): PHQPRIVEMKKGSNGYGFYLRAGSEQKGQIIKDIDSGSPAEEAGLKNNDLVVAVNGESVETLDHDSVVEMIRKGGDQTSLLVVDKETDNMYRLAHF

T4: LIN7B, Q9HAP6
T4 sequence (Q9HAP6 88-185, limits assumed, looked up): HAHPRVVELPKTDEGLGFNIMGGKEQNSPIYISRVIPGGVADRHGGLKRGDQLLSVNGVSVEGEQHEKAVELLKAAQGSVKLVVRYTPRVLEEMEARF

T5: APBA3_1, O96018
T5 sequence (O96018 389-490, limits assumed, looked up): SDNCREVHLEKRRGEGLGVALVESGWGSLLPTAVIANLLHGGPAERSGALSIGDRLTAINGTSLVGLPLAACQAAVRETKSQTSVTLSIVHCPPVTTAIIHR

T6: PDZD7_3, Q9H5P4
T6 sequence (Q9H5P4 857-944, limits assumed, looked up): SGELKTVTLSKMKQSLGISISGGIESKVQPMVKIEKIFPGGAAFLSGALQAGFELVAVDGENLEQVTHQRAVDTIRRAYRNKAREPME

T7: GRIP1_4, Q9Y3R0
T7 sequence (Q9Y3R0 467-571, limits assumed, looked up): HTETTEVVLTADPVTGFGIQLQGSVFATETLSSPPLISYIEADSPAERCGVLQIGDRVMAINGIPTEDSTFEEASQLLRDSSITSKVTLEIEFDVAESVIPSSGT

T8: HTRA3, P83110
T8 sequence (P83110 354-453, limits assumed, looked up): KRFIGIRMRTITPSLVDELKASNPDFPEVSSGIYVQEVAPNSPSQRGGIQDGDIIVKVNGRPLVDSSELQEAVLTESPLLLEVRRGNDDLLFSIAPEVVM

T9: MPDZ_5, O75970
T9 sequence (O75970 695-796, limits assumed, looked up): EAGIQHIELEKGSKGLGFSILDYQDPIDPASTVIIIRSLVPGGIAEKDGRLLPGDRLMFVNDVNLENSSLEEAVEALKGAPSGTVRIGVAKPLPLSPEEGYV


How the values were obtained:
Assay in all cases: holdup assay
Parameters in all cases: key: below the threshold = too weak to quantify, mostly under pKd 3.1 to 4
Settings in all cases: plain residues with an end cap or a label only (N-terminal biotin on a linker: ado-ado)
PDLIM1, O00151 = biological target: PDLIM1, O00151
Chain of PDLIM1, O00151 (O00151 1-87): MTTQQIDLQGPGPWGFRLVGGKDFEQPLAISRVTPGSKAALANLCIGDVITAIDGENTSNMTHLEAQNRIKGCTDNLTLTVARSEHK

LIN7C, Q9NUP9 = biological target: T1, LIN7C, Q9NUP9
HTRA1, Q92743 = biological target: HTRA1, Q92743
Chain of HTRA1, Q92743 (Q92743 360-477): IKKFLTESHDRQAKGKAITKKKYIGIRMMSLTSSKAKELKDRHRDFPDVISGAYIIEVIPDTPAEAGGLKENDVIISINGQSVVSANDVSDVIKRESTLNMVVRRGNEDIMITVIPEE

Inadl_10, Q8NI35 = biological target: Inadl_10, Q8NI35
Chain of Inadl_10, Q8NI35 (Q8NI35 1673-1763): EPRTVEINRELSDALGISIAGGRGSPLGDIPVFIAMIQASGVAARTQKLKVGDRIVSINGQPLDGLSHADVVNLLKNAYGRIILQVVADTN

LDB3, O75112 = biological target: LDB3, O75112
Chain of LDB3, O75112 (O75112 1-94): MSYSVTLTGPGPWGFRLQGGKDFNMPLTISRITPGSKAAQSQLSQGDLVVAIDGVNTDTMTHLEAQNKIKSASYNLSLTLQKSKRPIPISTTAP

PDZRN4_1, Q6ZMN7 = biological target: PDZRN4_1, Q6ZMN7
Chain of PDZRN4_1, Q6ZMN7 (Q6ZMN7 213-318): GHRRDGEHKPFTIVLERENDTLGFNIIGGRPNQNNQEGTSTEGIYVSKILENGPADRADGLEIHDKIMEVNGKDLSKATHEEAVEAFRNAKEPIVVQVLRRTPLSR

ARHGEF12, Q9NZN5-2 = biological target: ARHGEF12, Q9NZN5-2
Chain of ARHGEF12, Q9NZN5-2 (Q9NZN5 other isoform, or with tags, fused parts or gaps): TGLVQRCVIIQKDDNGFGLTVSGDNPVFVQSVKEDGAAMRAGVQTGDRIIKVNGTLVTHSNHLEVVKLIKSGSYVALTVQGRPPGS

MAGI2_3, Q86UL8 = biological target: MAGI2_3, Q86UL8
Chain of MAGI2_3, Q86UL8 (Q86UL8 600-682): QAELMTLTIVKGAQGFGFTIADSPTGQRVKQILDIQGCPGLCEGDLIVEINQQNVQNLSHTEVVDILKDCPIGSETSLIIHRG

DLG1_1, Q12959 = biological target: DLG1_1, Q12959
APBA2_2, Q99767 = biological target: T2, APBA2_2, Q99767
DLG2_2, Q15700 = biological target: DLG2_2, Q15700
Chain of DLG2_2, Q15700 (Q15700 189-283): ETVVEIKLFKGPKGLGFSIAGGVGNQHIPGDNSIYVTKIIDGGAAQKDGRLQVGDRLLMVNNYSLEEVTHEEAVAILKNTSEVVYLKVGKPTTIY

DLG4_3, P78352 = biological target: DLG4_3, P78352
Chain of DLG4_3, P78352 (P78352 306-403): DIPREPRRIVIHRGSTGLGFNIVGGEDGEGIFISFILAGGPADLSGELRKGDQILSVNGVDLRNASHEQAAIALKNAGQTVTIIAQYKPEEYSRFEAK

DLG4_2, P78352 = biological target: DLG4_2, P78352
Chain of DLG4_2, P78352 (P78352 155-259): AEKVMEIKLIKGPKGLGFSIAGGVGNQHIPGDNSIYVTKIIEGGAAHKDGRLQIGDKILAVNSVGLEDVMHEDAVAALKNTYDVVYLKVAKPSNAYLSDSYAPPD

IL16_1, Q14005 = biological target: IL16_1, Q14005
Chain of IL16_1, Q14005 (Q14005 210-306): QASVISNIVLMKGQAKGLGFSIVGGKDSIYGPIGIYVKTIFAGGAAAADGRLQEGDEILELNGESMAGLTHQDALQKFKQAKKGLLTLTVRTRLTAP

NHERF3_3, Q5T2W1 = biological target: T3, NHERF3_3, Q5T2W1
LIN7B, Q9HAP6 = biological target: T4, LIN7B, Q9HAP6
AHNAK1, Q09666 = biological target: AHNAK1, Q09666
Chain of AHNAK1, Q09666 (Q09666 4-100): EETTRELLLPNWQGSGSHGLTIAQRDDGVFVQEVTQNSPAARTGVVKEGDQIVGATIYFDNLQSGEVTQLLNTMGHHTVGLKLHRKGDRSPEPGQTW

APBA3_1, O96018 = biological target: T5, APBA3_1, O96018
LAP2, Q96RT1 = biological target: LAP2, Q96RT1
Chain of LAP2, Q96RT1 (Q96RT1 other isoform, or with tags, fused parts or gaps): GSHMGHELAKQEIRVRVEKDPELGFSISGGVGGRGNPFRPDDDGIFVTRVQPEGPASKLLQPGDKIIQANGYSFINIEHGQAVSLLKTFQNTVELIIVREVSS

LNX1_3, Q8TBB1 = biological target: LNX1_3, Q8TBB1
Chain of LNX1_3, Q8TBB1 (Q8TBB1 500-596): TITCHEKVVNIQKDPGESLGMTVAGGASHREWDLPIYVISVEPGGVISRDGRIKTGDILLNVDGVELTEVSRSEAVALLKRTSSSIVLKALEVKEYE

MAGI2_4, Q86UL8 = biological target: MAGI2_4, Q86UL8
Chain of MAGI2_4, Q86UL8 (Q86UL8 772-865): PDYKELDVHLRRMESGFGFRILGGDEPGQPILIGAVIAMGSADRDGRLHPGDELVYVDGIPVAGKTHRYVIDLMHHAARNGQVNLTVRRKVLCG

PDZD7_3, Q9H5P4 = biological target: T6, PDZD7_3, Q9H5P4
FRMPD3, Q5JV73 = biological target: FRMPD3, Q5JV73
Chain of FRMPD3, Q5JV73 (Q5JV73 12-100): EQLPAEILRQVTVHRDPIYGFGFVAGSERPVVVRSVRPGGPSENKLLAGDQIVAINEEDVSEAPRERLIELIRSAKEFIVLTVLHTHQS

GRIP2_7, Q9C0E4 = biological target: GRIP2_7, Q9C0E4
Chain of GRIP2_7, Q9C0E4 (Q9C0E4 934-1023): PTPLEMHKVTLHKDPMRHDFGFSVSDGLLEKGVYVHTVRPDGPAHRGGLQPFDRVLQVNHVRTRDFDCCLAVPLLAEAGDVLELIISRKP

GRIP1_4, Q9Y3R0 = biological target: T7, GRIP1_4, Q9Y3R0
Inadl_5, Q8NI35 = biological target: Inadl_5, Q8NI35
Chain of Inadl_5, Q8NI35 (Q8NI35 673-780): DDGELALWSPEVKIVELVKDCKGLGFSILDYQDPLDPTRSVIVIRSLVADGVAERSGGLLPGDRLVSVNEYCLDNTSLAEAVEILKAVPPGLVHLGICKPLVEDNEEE

IL16_4, Q14005 = biological target: IL16_4, Q14005
Chain of IL16_4, Q14005 (Q14005 1229-1329): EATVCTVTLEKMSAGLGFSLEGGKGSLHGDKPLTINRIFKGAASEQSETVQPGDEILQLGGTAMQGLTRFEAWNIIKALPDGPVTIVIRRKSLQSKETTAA

HTRA3, P83110 = biological target: T8, HTRA3, P83110
MPDZ_5, O75970 = biological target: T9, MPDZ_5, O75970

| pKd (PDLIM1, O00151) | pKd (LIN7C, Q9NUP9) | pKd (HTRA1, Q92743) | pKd (Inadl_10, Q8NI35) | pKd (LDB3, O75112) | pKd (PDZRN4_1, Q6ZMN7) | pKd (ARHGEF12, Q9NZN5-2) | pKd (MAGI2_3, Q86UL8) | pKd (DLG1_1, Q12959) | pKd (APBA2_2, Q99767) | pKd (DLG2_2, Q15700) | pKd (DLG4_3, P78352) | pKd (DLG4_2, P78352) | pKd (IL16_1, Q14005) | pKd (NHERF3_3, Q5T2W1) | pKd (LIN7B, Q9HAP6) | pKd (AHNAK1, Q09666) | pKd (APBA3_1, O96018) | pKd (LAP2, Q96RT1) | pKd (LNX1_3, Q8TBB1) | other results | Binder |
| --- | --- | --- | --- | --- | --- | --- | --- | --- | --- | --- | --- | --- | --- | --- | --- | --- | --- | --- | --- | --- | --- |
| below the threshold | 4.07 | 3.5 | below the threshold | below the threshold | below the threshold | below the threshold | below the threshold | below the threshold | below the threshold | below the threshold | below the threshold | below the threshold | below the threshold | below the threshold | below the threshold | below the threshold | below the threshold | below the threshold | below the threshold | pKd (MAGI2_4, Q86UL8): below the threshold; pKd (PDZD7_3, Q9H5P4): below the threshold; pKd (FRMPD3, Q5JV73): below the threshold; pKd (GRIP2_7, Q9C0E4): below the threshold; pKd (GRIP1_4, Q9Y3R0): below the threshold; pKd (Inadl_5, Q8NI35): below the threshold; pKd (IL16_4, Q14005): below the threshold; pKd (HTRA3, P83110): below the threshold; pKd (MPDZ_5, O75970): below the threshold | LETREPTNTL [GRIP1, Q9Y3R0] |
| below the threshold | below the threshold | 3.74 | below the threshold | below the threshold | below the threshold | below the threshold | below the threshold | below the threshold | below the threshold | 3.62 | 3.55 | 3.64 | below the threshold | below the threshold | 3.65 | below the threshold | below the threshold | below the threshold | below the threshold | pKd (MAGI2_4, Q86UL8): 3.53; pKd (PDZD7_3, Q9H5P4): below the threshold; pKd (FRMPD3, Q5JV73): below the threshold; pKd (GRIP2_7, Q9C0E4): below the threshold; pKd (GRIP1_4, Q9Y3R0): below the threshold; pKd (Inadl_5, Q8NI35): below the threshold; pKd (IL16_4, Q14005): 3.69; pKd (HTRA3, P83110): below the threshold; pKd (MPDZ_5, O75970): below the threshold | TMQMSLKDLL [GLA, P06280] |
| below the threshold | 4.07 | below the threshold | below the threshold | below the threshold | below the threshold | below the threshold | below the threshold | below the threshold | below the threshold | below the threshold | below the threshold | below the threshold | below the threshold | below the threshold | 3.62 | below the threshold | below the threshold | below the threshold | below the threshold | pKd (MAGI2_4, Q86UL8): below the threshold; pKd (PDZD7_3, Q9H5P4): below the threshold; pKd (FRMPD3, Q5JV73): below the threshold; pKd (GRIP2_7, Q9C0E4): below the threshold; pKd (GRIP1_4, Q9Y3R0): below the threshold; pKd (Inadl_5, Q8NI35): below the threshold; pKd (IL16_4, Q14005): below the threshold; pKd (HTRA3, P83110): below the threshold; pKd (MPDZ_5, O75970): below the threshold | RALRASESGI [ADGRE5, P48960] |
| below the threshold | below the threshold | 4.14 | below the threshold | below the threshold | below the threshold | below the threshold | below the threshold | below the threshold | below the threshold | below the threshold | below the threshold | below the threshold | below the threshold | below the threshold | below the threshold | below the threshold | below the threshold | below the threshold | below the threshold | pKd (MAGI2_4, Q86UL8): below the threshold; pKd (PDZD7_3, Q9H5P4): below the threshold; pKd (FRMPD3, Q5JV73): below the threshold; pKd (GRIP2_7, Q9C0E4): below the threshold; pKd (GRIP1_4, Q9Y3R0): below the threshold; pKd (Inadl_5, Q8NI35): below the threshold; pKd (IL16_4, Q14005): below the threshold; pKd (HTRA3, P83110): below the threshold; pKd (MPDZ_5, O75970): below the threshold | GCQGETEDVL [PTH2R, P49190] |
| below the threshold | below the threshold | 5.07 | 3.75 | below the threshold | below the threshold | 4.47 | below the threshold | 4.79 | below the threshold | 4.87 | below the threshold | 4.95 | 3.88 | below the threshold | below the threshold | below the threshold | below the threshold | below the threshold | 3.53 | pKd (MAGI2_4, Q86UL8): 4.53; pKd (PDZD7_3, Q9H5P4): 5.23; pKd (FRMPD3, Q5JV73): below the threshold; pKd (GRIP2_7, Q9C0E4): below the threshold; pKd (GRIP1_4, Q9Y3R0): below the threshold; pKd (Inadl_5, Q8NI35): 3.87; pKd (IL16_4, Q14005): 3.67; pKd (HTRA3, P83110): 3.92; pKd (MPDZ_5, O75970): 3.56 | PMESGICTIV [TTC24, A2A3L6] |
